For 3 proteins, Km, kcat and kcat/Km results are on record in publication PMC12190498, “Improving the Catalytic Activity and Thermostability of FAST-PETase with a Multifunctional Short Peptide” (Biomolecules, 2025).

Substrate in the data set: CCCC(=O)Oc1ccc([N+](=O)[O-])cc1
Description: purified protein. Type of data set: biochemical, Pseudideonella sakaiensis.

Setting [1] is: 50 mM potassium phosphate pH 7.5, 50°C or 55°C (50°C is the optimum of this enzyme).
Where [2] appears, read: 50 mM potassium phosphate pH 7.5, 50°C or 55°C (55°C is the optimum of this enzyme).

B1: FAST-PETase (Pseudideonella sakaiensis; D186H/N233K/R224Q/R280A/S121E) (protein)
chain: QTNPYARGPNPTAASLEASAGPFTVRSFTVSRPSGYGAGTVYYPTNAGGTVGAIAIVPGYTARQSSIKWWGPRLASHGFVVITIDTNSTLDQPESRSSQQMAALRQVASLNGTSSSPIYGKVDTARMGVMGWSMGGGGSLISAANNPSLKAAAPQAPWHSSTNFSSVTVPTLIFACENDSIAPVNSSALPIYDSMSQNAKQFLEIKGGSHSCANSGNSNQALIGKKGVAWMKRFMDNDTRYSTFACENPNSTAVSDFRTANCS
notes: FAST-PETase, C-terminal 6xHis, pET28a, E. coli Origami 2(DE3), Ni-NTA
For orientation: Km means the substrate concentration at which the rate is half of its maximum. For orientation: kcat means the maximal rate divided by the concentration of active sites. A word on the kcat/Km: it is the second-order rate constant that governs catalysis at low substrate concentration. As to B1, under setting [1], the Michaelis constant (Km) was 880 ± 160 µM, the catalytic constant (kcat) was 0.724 ± 0.0532 s⁻¹ and the kcat/Km was 824 ± 112 M⁻¹ s⁻¹.

B2: S1v1-FAST-PETase (Pseudideonella sakaiensis; D186H/N233K/R224Q/R280A/S121E) (protein)
chain: QTNPYARGPNPTAASLEASAGPFTVRSFTVSRPSGYGAGTVYYPTNAGGTVGAIAIVPGYTARQSSIKWWGPRLASHGFVVITIDTNSTLDQPESRSSQQMAALRQVASLNGTSSSPIYGKVDTARMGVMGWSMGGGGSLISAANNPSLKAAAPQAPWHSSTNFSSVTVPTLIFACENDSIAPVNSSALPIYDSMSQNAKQFLEIKGGSHSCANSGNSNQALIGKKGVAWMKRFMDNDTRYSTFACENPNSTAVSDFRTANCS
notes: artificial peptide S1v1 (AEAEAHAH)2 fused to N-terminus via PT-linker …, C-terminal 6xHis, E. coli Origami 2(DE3), Ni-NTA
For B2, under setting [2], the Km is 860 ± 150 µM, the kcat was determined as 0.581 ± 0.0392 s⁻¹ and the kcat/Km was found to be 679 ± 72.2 M⁻¹ s⁻¹.

B3: FAST-PETase-S1v1 (Pseudideonella sakaiensis; D186H/N233K/R224Q/R280A/S121E) (protein)
chain: QTNPYARGPNPTAASLEASAGPFTVRSFTVSRPSGYGAGTVYYPTNAGGTVGAIAIVPGYTARQSSIKWWGPRLASHGFVVITIDTNSTLDQPESRSSQQMAALRQVASLNGTSSSPIYGKVDTARMGVMGWSMGGGGSLISAANNPSLKAAAPQAPWHSSTNFSSVTVPTLIFACENDSIAPVNSSALPIYDSMSQNAKQFLEIKGGSHSCANSGNSNQALIGKKGVAWMKRFMDNDTRYSTFACENPNSTAVSDFRTANCS
notes: artificial peptide S1v1 (AEAEAHAH)2 fused to C-terminus via PT-linker …, C-terminal 6xHis, E. coli Origami 2(DE3), Ni-NTA
Regarding B3, under setting [2], the Km was found to be 1220 ± 180 µM, the kcat turned out to be 1.36 ± 0.0918 s⁻¹ and the kcat/Km came out at 1110 ± 138 M⁻¹ s⁻¹.
